According to US6365372 (SAINT LOUIS UNIVERSITY, dated 2002):

B1: VP16-clone 11 chimera (other)
chain: MTAPPTDVSLGDELHLDGEDVAMAHADALDDFDLDMLGDGDSPGPGFTPHDSAPYGALDMADFEFEQMFTDALGIDEYGGGTSLASASPVPAPTPVLAPSSTQTMLPAPVPSPLPSPASTQTLALAPALAPTLGGSSPSQTLSLGTGNPQGPFPTQTLSLTPASSLVPTPAQTLSLAPGPPLGPTQTLSLAPAPPLAPASPVGPAPAHTLTLAPASSSASLLAPASVQTLTLSPAPVPTLGPAAAQTLALAPASTQSPASQASSLVVSASGAAPLPVTMVSRLPVSKDEPDTLTLRSGPPSPPSTATSFGGPRPRRQPPPPPRSPFYLDSLEEKRKRQRSERLERIFQLSEAHGALAPVYGTEVLDFCTLPQPVASPIGPRSPGPSHPTFWTYTEAAHRA
B2: VP16 activation domain (other)
chain: MTAPPTDVSLGDELHLDGEDVAMAHADALDDFDLDMLGDGDSPGPGFTPHDSAPYGALDMADFEFEQMFTDALGIDEYGG
notes: range 412-491; Control without the clone 11 part; also called pVP16

How the values were obtained:
[1] = target: T1, Gal-CBP280-460 chimera (yeast, UniProt P04386 1-147; P45481 280-460); experiment: cell-based or functional assay
[2] = target: Gal-CBP227-460 chimera (yeast, UniProt P04386 1-147; P45481 227-460); experiment: cell-based or functional assay
[3] = target: T1, Gal-CBP280-460 chimera; experiment: mammalian two-hybrid assay in HeLa cells

| Binder | transcription of the reporter gene pGal-CAT (relative CAT activity) [1] | ability of the Gal-CBP227-460 chimera to activate transcription of the reporter gene pGal-CAT [2] | binding result [3] |
| --- | --- | --- | --- |
| B1 | ~20 fold | ~1.5 fold | – |
| B2 | – | – | no binding |
